The source of these data is the supplement of paper PMC12855868.

The labels stand for the following.
B1: library; numbered along this chain (parent)
chain: MAAAGGARLLRAASAVLGGPAGRWLHHAGSRAGSSGLLRNRGPGGSAEASRSLSVSARARSSSEDKITVHFINRDGETLTTKGKVGDSLLDVVVENNLDIDGFGACEGTLACSTCHLIFEDHIYEKLDAITDEENDMLDLAYGLTDRSRLGCQICLTKSMDNMTVRVPETVADARQSIDVGKTS

In this series the parent is B1. Briefly: scaled log2 fold change in cell abundance, elesclomol vs control (0 = silent mean, 1 = nonsense mean) (scaled log2 ratio); higher = higher viability under elesclomol (loss of FDX1 cuproptosis function). The conditions noted are these: glucose 10 mM. The method, then: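 Deep mutational scan of full-length human FDX1: a pooled saturation-mutagenesis ORF library (every residue 2-184 mutated to all 19 amino acids plus stop, and silent codons where available) was expressed by lentivirus in FDX1-knockout ABC1 (14 days) or HEK293T (11 days) cells grown with elesclomol (ES) or DMSO control. Variant abundance came from ORF sequencing. The log2 fold change (ES vs control, mean of duplicates) was centred on the silent-variant mean (0) and scaled to the nonsense-variant mean (1). Higher values mean greater viability under ES, i.e. loss of FDX1 function in cuproptosis.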

[1] abbreviates: with ABC1 FDX1 KO, elesclomol 5 nM, 14 days.
Where [2] appears, read: with HEK293T FDX1 KO, elesclomol 40 nM, 11 days.
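Further: variant abundance is its share of total variant reads in each endpoint sample, from next-generation sequencing of the integrated ORF PCR-amplified out of genomic DNA.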

As to MAAAGGARLLRAASAVLGGPAGRWLHHAGSRAGSSGLLRNRGPGGSAEASRSLSVSARARSSSEDKITVHFINRDGETLTTKGKVGDSLLDVVVENNYDIDGFGACEGTLACSTCHLIFEDHIYEKLDAITDEENDMLDLAYGLTDRSRLGCQICLTKSMDNMTVRVPETVADARQSIDVGKTS [L98Y], the “scaled log2 fold change” value under setting [1] amounted to 0.000145 and the “scaled log2 fold change” value under setting [2] was -0.257.
Consider MAAAGGARLLRAASAVLGGPAGRWLHHAGSRAGSSGLLRNRGPGGSAEASRSLSVSARARSSSEDKITVHFINRDGETLTTKGKVGDSLLDVVVENNLEIDGFGACEGTLACSTCHLIFEDHIYEKLDAITDEENDMLDLAYGLTDRSRLGCQICLTKSMDNMTVRVPETVADARQSIDVGKTS [D99E], for which the “scaled log2 fold change” value reads like this: under setting [1], 0.144; under setting [2], 0.199.
The like results for MAAAGGARLLRAASAVLGGPAGRWLHHAGSRAGSSGLLRNRGPGGSAEASRSLSVSARARSSSEDKITVHFINRDGETLTTKGKVGDSLLDVVVENNLIIDGFGACEGTLACSTCHLIFEDHIYEKLDAITDEENDMLDLAYGLTDRSRLGCQICLTKSMDNMTVRVPETVADARQSIDVGKTS [D99I] were, in that order, 0.14 and -0.0831.
With MAAAGGARLLRAASAVLGGPAGRWLHHAGSRAGSSGLLRNRGPGGSAEASRSLSVSARARSSSEDKITVHFINRDGETLTTKGKVGDSLLDVVVENNLQIDGFGACEGTLACSTCHLIFEDHIYEKLDAITDEENDMLDLAYGLTDRSRLGCQICLTKSMDNMTVRVPETVADARQSIDVGKTS [D99Q], the “scaled log2 fold change” value reads like this: under setting [1], 0.0501; under setting [2], -1.25.
On to MAAAGGARLLRAASAVLGGPAGRWLHHAGSRAGSSGLLRNRGPGGSAEASRSLSVSARARSSSEDKITVHFINRDGETLTTKGKVGDSLLDVVVENNLRIDGFGACEGTLACSTCHLIFEDHIYEKLDAITDEENDMLDLAYGLTDRSRLGCQICLTKSMDNMTVRVPETVADARQSIDVGKTS [D99R], for which the “scaled log2 fold change” value was -0.084 under setting [1] and 0.945 under setting [2].
Taken in the same sequence, the figures for MAAAGGARLLRAASAVLGGPAGRWLHHAGSRAGSSGLLRNRGPGGSAEASRSLSVSARARSSSEDKITVHFINRDGETLTTKGKVGDSLLDVVVENNLMIDGFGACEGTLACSTCHLIFEDHIYEKLDAITDEENDMLDLAYGLTDRSRLGCQICLTKSMDNMTVRVPETVADARQSIDVGKTS [D99M] were -0.0783 and 0.944.
In the case of MAAAGGARLLRAASAVLGGPAGRWLHHAGSRAGSSGLLRNRGPGGSAEASRSLSVSARARSSSEDKITVHFINRDGETLTTKGKVGDSLLDVVVENNLNIDGFGACEGTLACSTCHLIFEDHIYEKLDAITDEENDMLDLAYGLTDRSRLGCQICLTKSMDNMTVRVPETVADARQSIDVGKTS [D99N], the “scaled log2 fold change” value was -0.0926 under setting [1] and -0.216 under setting [2].
As to MAAAGGARLLRAASAVLGGPAGRWLHHAGSRAGSSGLLRNRGPGGSAEASRSLSVSARARSSSEDKITVHFINRDGETLTTKGKVGDSLLDVVVENNLKIDGFGACEGTLACSTCHLIFEDHIYEKLDAITDEENDMLDLAYGLTDRSRLGCQICLTKSMDNMTVRVPETVADARQSIDVGKTS [D99K], the “scaled log2 fold change” value by setting is: under setting [1], 0.114; under setting [2], -0.24.
With MAAAGGARLLRAASAVLGGPAGRWLHHAGSRAGSSGLLRNRGPGGSAEASRSLSVSARARSSSEDKITVHFINRDGETLTTKGKVGDSLLDVVVENNLLIDGFGACEGTLACSTCHLIFEDHIYEKLDAITDEENDMLDLAYGLTDRSRLGCQICLTKSMDNMTVRVPETVADARQSIDVGKTS [D99L], the “scaled log2 fold change” value is, setting by setting: under setting [1], -0.286; under setting [2], -0.152.
Taken in the same sequence, the figures for MAAAGGARLLRAASAVLGGPAGRWLHHAGSRAGSSGLLRNRGPGGSAEASRSLSVSARARSSSEDKITVHFINRDGETLTTKGKVGDSLLDVVVENNLSIDGFGACEGTLACSTCHLIFEDHIYEKLDAITDEENDMLDLAYGLTDRSRLGCQICLTKSMDNMTVRVPETVADARQSIDVGKTS [D99S] were -0.273 and -0.316.
Turning to MAAAGGARLLRAASAVLGGPAGRWLHHAGSRAGSSGLLRNRGPGGSAEASRSLSVSARARSSSEDKITVHFINRDGETLTTKGKVGDSLLDVVVENNLGIDGFGACEGTLACSTCHLIFEDHIYEKLDAITDEENDMLDLAYGLTDRSRLGCQICLTKSMDNMTVRVPETVADARQSIDVGKTS [D99G], the “scaled log2 fold change” value under setting [1] was -1 and the “scaled log2 fold change” value under setting [2] was -0.777.
Taken in the same sequence, the figures for MAAAGGARLLRAASAVLGGPAGRWLHHAGSRAGSSGLLRNRGPGGSAEASRSLSVSARARSSSEDKITVHFINRDGETLTTKGKVGDSLLDVVVENNLFIDGFGACEGTLACSTCHLIFEDHIYEKLDAITDEENDMLDLAYGLTDRSRLGCQICLTKSMDNMTVRVPETVADARQSIDVGKTS [D99F] were -0.0227 and 0.0629.
In the case of MAAAGGARLLRAASAVLGGPAGRWLHHAGSRAGSSGLLRNRGPGGSAEASRSLSVSARARSSSEDKITVHFINRDGETLTTKGKVGDSLLDVVVENNLAIDGFGACEGTLACSTCHLIFEDHIYEKLDAITDEENDMLDLAYGLTDRSRLGCQICLTKSMDNMTVRVPETVADARQSIDVGKTS [D99A], the “scaled log2 fold change” value reads like this: under setting [1], 0.0591; under setting [2], -1.37.
As to MAAAGGARLLRAASAVLGGPAGRWLHHAGSRAGSSGLLRNRGPGGSAEASRSLSVSARARSSSEDKITVHFINRDGETLTTKGKVGDSLLDVVVENNLCIDGFGACEGTLACSTCHLIFEDHIYEKLDAITDEENDMLDLAYGLTDRSRLGCQICLTKSMDNMTVRVPETVADARQSIDVGKTS [D99C], the “scaled log2 fold change” value amounted to 0.108 under setting [1] and 0.138 under setting [2].
The like results for MAAAGGARLLRAASAVLGGPAGRWLHHAGSRAGSSGLLRNRGPGGSAEASRSLSVSARARSSSEDKITVHFINRDGETLTTKGKVGDSLLDVVVENNLHIDGFGACEGTLACSTCHLIFEDHIYEKLDAITDEENDMLDLAYGLTDRSRLGCQICLTKSMDNMTVRVPETVADARQSIDVGKTS [D99H] were, in that order, -0.403 and -0.137.
Taken in the same sequence, the figures for MAAAGGARLLRAASAVLGGPAGRWLHHAGSRAGSSGLLRNRGPGGSAEASRSLSVSARARSSSEDKITVHFINRDGETLTTKGKVGDSLLDVVVENNLPIDGFGACEGTLACSTCHLIFEDHIYEKLDAITDEENDMLDLAYGLTDRSRLGCQICLTKSMDNMTVRVPETVADARQSIDVGKTS [D99P] were 0.167 and -0.37.
